“Also recorded” adds a separate entry of the source.
Columns and labels:
MPSCs = assay: Proliferation of mouse PSCs by MTS assay at 7 days; type: cell-based
Description: (§1) FIGS. 12A-D. DKK3 expression in mouse PSCs and effects of treatment with DKKC mAb on survival. (FIG. 12A) Western blot analysis of recombinant human and mouse DKK3 under denaturing and non-denaturing conditions using JM6-6-1 mAb. (FIG. 12B) Expression of murine DKK3 in murine PSCs (MPSC) or 3T3 cells was determined by RT-PCR. 18S was used as loading control. (FIG. 12C) Proliferation of MPSCs treated with DKK3 mAb was measured at 7 days by MTS assay. ***p<0.001 vs. PBS. (FIG. 12D) Pdx1-Cre; Kras LSL-G12D;Trp53fl/+ model of PDAC was treated with DKK3 mAb JM6-6-1 or control mAb JM4-74 (5 mg/kg i.p. q5d). Kaplan-Meier survival curves are shown (log rank test). At 0% survival, the right line is JM6-6-1, the middle lines is PBS, and the left line is Control Ab.
Cell-based assays. Cell proliferation was measured by the MTS assay (Promega, Madison, Wis.). Cell migration and invasion studies with stimulation by recombinant human DKK3 (R&D, Minneapolis, Minn.) were performed using 6.5-mm Transwell® with 8.0-μm pore membrane Insert (Corning Incorporated) and BioCoat Matrigel-coated invasion chambers (BD Biosciences, Bedford, Mass.).

4T1 TNBC cells = assay: 4T1 orthotopic mouse model of TNBC; type: in vivo
Description: (FIG. 13A) DKK3 expression was measured by RT-PCR in TNBC fibroblasts (BCF), human pancreatic stellate cells (HPSC) from pancreatic adenocarcinoma (PDAC), BxPC (PDAC cancer cell) and water control. (FIG. 13B) DKK3 protein was measured by Western blotting in BCF from TNBC, in ER-positive breast cancer cells, and in TNBC cancer cell lines. (FIG. 13C) DKK3 protein was measured in patient-derived xenograft (PDX) tumors from TNBC relative to recombinant human DKK3 (rhDKK3) and conditioned medium from HPSC (HPSC-CM). Actin was used as loading control. […] Data is pooled from TCGA, EGA and GEO.
FIGS. 14A-C. Treatment of TNBC orthotopic model with DKK3 mAb. […] Tumor growth was measured by calipers at day 33 after starting treatment and compared to initial tumor size prior to treatment. (FIG. 14B) 4T1 primary tumors and metastases were imaged using IVIS at day 33 after starting treatment. (FIG. 14C) Luciferase signal from 4T1 metastases was measured by IVIS at day 33 after starting treatment.
Treatment of TNBC orthotopic models with DKK3 mAb was also tested. An orthotopic model using 4T1 TNBC cells labeled with firefly luciferase was treated with PBS, a control antibody, or JM6-6-1. […] The mice were also imaged to detect the primary tumors and any metastases (FIG. 14B).

murine DKK3 = murine DKK3 (Mus musculus, UniProt Q9QUN9); assay: Non-denaturing Western blot of recombinant DKK3 with JM6-6-1; type: binding
Sequence of murine DKK3 (Q9QUN9 23-349): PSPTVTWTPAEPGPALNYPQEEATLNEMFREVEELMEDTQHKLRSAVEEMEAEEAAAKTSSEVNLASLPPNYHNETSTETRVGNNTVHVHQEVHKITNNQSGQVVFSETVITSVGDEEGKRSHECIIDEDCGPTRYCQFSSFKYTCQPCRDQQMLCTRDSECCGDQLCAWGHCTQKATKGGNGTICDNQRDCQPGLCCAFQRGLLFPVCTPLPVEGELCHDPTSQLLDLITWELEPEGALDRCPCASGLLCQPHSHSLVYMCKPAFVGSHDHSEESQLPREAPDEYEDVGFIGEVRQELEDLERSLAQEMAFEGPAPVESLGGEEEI
Description: as §1
Human and murine DKK3 share 83% protein sequence homology by BLAST analysis and therefore it was anticipated that it was likely that JM6-6-1 could cross-react with host DKK3. […] When KPC mice (P48-Cre; Kras^LSL-G12D;Trp53^fl/fl) were treated with JM6-6-1 (red solid line, FIG. 5H), median survival increased by 43% from 43 to 61.5 days compared to PBS or isotype control mAb (p=0.005, HR 0.24, 95% CI 0.01-0.30; FIG. 5H).

BxPC3 cells = assay: BxPC3 resistance to gemcitabine, MTS proliferation assay; type: cell-based, human; conditions: BxPC3, gemcitabine 100 μM, HPSC-CM 10 μg/ml, 6 days
Description: HPSCs and BxPC3 cells were treated with DKK3 mAb clones JM6-6-1 and JM8-12-1 or isotype control mAb or PBS. (FIGS. 5A-B) HPSC apoptosis and migration as measured by FACS and Transwell migration assay at 48 hours. (FIG. 5C) BxPC3 migration in response to rhDKK3 10 μg/ml as measured by Transwell migration assay at 48 hours. (FIG. 5D) BxPC3 resistance to gemcitabine 100 μM as measured by MTS proliferation assay at 6 days. HPSC-CM, pancreatic stellate cell conditioned media, 10 μg/ml. The orthotopic co-injection BxPC3+ HPSC model of PDAC was used to test the efficacy of DKK3 mAb clones JM6-6-1 or JM8-12-1 (5 mg/kg i.p. once every 5 days). (FIG. 5E) Overall tumor progression was measured every 3-4 days by IVIS imaging. (FIG. 5F) Metastatic tumors in the peritoneal cavity after removal of the primary pancreatic tumor are shown by IVIS imaging. (FIG. 5G) Kaplan Meier survival curve showing mice treated with DKK3 mAb clone JM8-12 (right-most line), control mAb (middle line), or PBS (left-most line). (FIG. 5H) KPC mice (P48-Cre; Kras LSL-G12D;Trp53fl/fl) with either wild type DKK3 (solid lines) or deficient in DKK3 (“DKK3-KO,” dashed lines) were treated with DKK3 mAb JM6-6-1 (5 mg/kg i.p. once every 5 days), PBS or control mAb. […]
Cell-based assays. Cell proliferation was measured by the MTS assay (Promega, Madison, Wis.). […]

B1: JM6-6-1: monoclonal antibody against human DKK3; heavy chain variable SEQ ID NO: 19, light chain variable SEQ ID NO: 20 (antibody, V domains shown)
VH: EVKLVESGGGLVKPGGSLKLSCAASGFTFTIEYMAWIRQTPEKRLEWVASISSGGDDIYYADNVKGRFTISRDNAKNTLYLQMSSLKSEDTAIYYCSRSLSDWGQGTTLTVSSAKTTPPSDYPLA
VL: MTQTPLSLPVSLGDQASISCRSSQSILHSNGHTYLEWYLQKPGQSPKLLIYKVSNRFSGVPDRFSGSGSGTDFTLKISRVEAEDLGVYYCFQGSHVPFTFGSGTKLEIERADAAQ
proliferation of mouse PSCs (MPSCs): inhibited proliferation | luciferase signal from 4T1 metastases (4T1 TNBC cells; 5 mg/kg ip q5 days, IVIS day 33): prevented metastases | tumor size at day 33 after starting treatment compared to controls (4T1 TNBC cells; 5 mg/kg ip q5 days, calipers): significantly smaller | survival relative to control antibody and PBS (4T1 TNBC cells; 4T1 mouse model of TNBC): improved survival; also recorded: increased survival | cross-reactivity with murine DKK3 (murine DKK3): recognizes murine DKK3 although more weakly than human DKK3 | effect on DKK3-mediated chemoresistance to gemcitabine (BxPC3 cells): abrogated the DKK3-mediated induction of chemoresistance to gemcitabine
